Measurements from US20240101640A1 (CSL BEHRING, published 2024).

B2: heme-hemopexin complex (human plasma derived hemopexin saturated with hemin) (ligand)
chain: TPLPPTSAHGNVAEGETKPDPDVTERCSDGWSFDATTLDDNGTMLFFKGEFVWKSHKWDRELISERWKNFPSPVDAAFRQGHNSVFLIKGDKVWVYPPEKKEKGYPKLLQDEFPGIPSPLDAAVECHRGECQAEGVLFFQGDREWFWDLATGTMKERSWPAVGNCSSALRWLGRYYCFQGNQFLRFDPVRGEVPPRYPRDVRDYFMPCPGRGHGHRNGTGHGNSTHHGPEYMRCSPHLVLSALTSDNHGATYAFSGTHYWRLDTSRDGWHSWPIAHQWPQGPSAVDAAFSWEEKLYLVQGTQVYVFLTKGGYTLVSGYPKRLEKEVGTPHGIILDSVDAAFICPGSSRLHIMAGRRLWWLDLKSGAQATWTELPWPHEKVDGALCMEKSLGPNSCSANGPGLYLIHGPNLYCYSDVEKLNAAKALPQPQNVTSLLGCTH
modifications: heme (hemin) bound non-covalently in a 1:1 ratio
notes: also called heme-hpx complex; heme-hx complex

Experiments:
[1] = biological target: B2; experiment: BLI (Octet), LRP1.1 captured on anti-Penta-His biosensor, heme-hpx complex as analyte at 0.312-2.5 µM [LRP1.1]
Method: (§1) Individual LRP1 domains were immobilized on the biosensor surface. After baseline recording four concentration of heme-hpx complexes were tested (2.5, 1.25, 0.625 and 0.312 μM). For LRP1.3 the reference subtracted and processed kinetic dataset was globally fitted using a 1:1 binding model. Heme-hpx is shown in red curves, fitted curve as solid black line. LRP1.1, LRP1.2, LRP1.4 and LRP1.5 were not fitted.
(§2) As described above, anti-penta His antibody pre-coated biosensors (Cat N°: 18-5120, ForteBio, TechNote 43: Anti-Penta-HIS (HIS1K) biosensors for label-free analysis of HIS-tagged proteins, 2019) were used. The different LRP1 domains were immobilized at a concentration of 15 μg/mL in 10× kinetic buffer (PBS, 0.1% BSA, 0.02% Tween20). Heme-Hpx complex was diluted in 10× kinetic buffer (PBS, 0.1% BSA, 0.02% Tween20). The association and dissociation kinetics of heme-hemopexin complex, were performed at concentrations of 2.5, 1.25, 0.625 and 0.3125 μM. A reference control was included in every experiment (sensor loaded with ligand without analyte). Data was acquired on an OctetRED96 (FortéBio) at 30° C. with the following settings:
(§3) To investigate and determine, which of the LRP1 domains bind the heme-hpx complex, each of the domains were tethered on biosensors (HIS1K; anti-penta-His) via the expressed His-tag.

[2] = biological target: T1, HuLRP1(1-24)-FLAG-HuLRP1(2481-2942)-8His (huLRP1 soluble minireceptor, ligand binding domain III) (human, UniProt Q07954 2481-2942); experiment: BLI (OctetRED96, 30 °C), LRP1.3 captured on anti-penta-His biosensor, heme-hpx (batch TO294001) 2.5-0.312 µM, global 1:1 fit
T1 construct: Made in ExpiCHO-S cells; also called LRP1.3; LRP1 domain III
T1 sequence (Q07954 other isoform, or with tags, fused parts or gaps): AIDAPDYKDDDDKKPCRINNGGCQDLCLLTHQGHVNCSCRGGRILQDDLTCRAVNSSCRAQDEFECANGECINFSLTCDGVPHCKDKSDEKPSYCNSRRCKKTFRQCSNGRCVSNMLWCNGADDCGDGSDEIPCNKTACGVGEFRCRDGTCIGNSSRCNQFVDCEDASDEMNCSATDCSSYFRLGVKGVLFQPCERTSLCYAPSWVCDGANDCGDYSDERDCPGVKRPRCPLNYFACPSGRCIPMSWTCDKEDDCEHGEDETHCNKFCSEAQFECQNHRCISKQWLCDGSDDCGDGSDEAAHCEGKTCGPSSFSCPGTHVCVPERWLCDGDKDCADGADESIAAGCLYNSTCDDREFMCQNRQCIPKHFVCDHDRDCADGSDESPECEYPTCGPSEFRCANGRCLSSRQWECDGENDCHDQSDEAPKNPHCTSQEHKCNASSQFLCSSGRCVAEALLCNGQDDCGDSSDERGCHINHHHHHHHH
Method: as §1
as §2, with “settings: […]” for “settings:”

[3] = biological target: T1, HuLRP1(1-24)-FLAG-HuLRP1(2481-2942)-8His …; experiment: SPR (Biacore, 37 °C), heme-hpx (batch TO411122) captured by anti-hemopexin polyclonal antibody on CM5, LRP1.3 0.312-20 µM as analyte, kinetic fit (not optimal)
[4] = biological target: T1, HuLRP1(1-24)-FLAG-HuLRP1(2481-2942)-8His …; experiment: SPR (Biacore), LRP1.3 tethered on NTA chip, heme-hpx complex ("aged", batch TO342022B by the legend) as analyte at 0.62-20 µM, steady state 1:1 fit
Method: (§4) Heme-hpx complex was injected in duplicate at concentrations ranging from 0.62 to 20 μM in 2-fold dilution series over 30 seconds. The dissociation was monitored for 60 seconds. No regeneration step was required between cycles since the complex dissociated fully. Sensogram data from active surface (flow cell 4) were double referenced by subtraction of data from reference surface (flow cells 3) and blank injections. Sensogram data were fit to a 1:1 steady state model.

[5] = biological target: T1, HuLRP1(1-24)-FLAG-HuLRP1(2481-2942)-8His …; experiment: SPR, LRP1.3 tethered on NTA chip (capture cross link), heme-hpx (batch TO411122) 0.62-20 µM, 1:1 steady state fit, run 3
Method: as §4
(§5) In a next step and as mentioned above an alternative assay setup was developed as illustrated in FIG. 7A.

[6] = biological target: T1, HuLRP1(1-24)-FLAG-HuLRP1(2481-2942)-8His …; experiment: SPR, LRP1.3 tethered on NTA chip, heme-hpx complex batch TO341022BM (“New”), 1:1 steady state fit, N = 1
[7] = biological target: T1, HuLRP1(1-24)-FLAG-HuLRP1(2481-2942)-8His …; experiment: SPR (Biacore), LRP1.3 tethered on NTA chip, heme-hpx complex ("new", batch TO341022BM by the legend) as analyte at 0.62-20 µM, steady state 1:1 fit
Method: as §4

[8] = biological target: T2, HuLRP1 (3332-3779)-8His (second ligand binding domain IV construct) (human, UniProt Q07954 3332-3779); experiment: BLI (Octet), LRP1.5 captured on anti-Penta-His biosensor, heme-hpx complex as analyte at 0.312-2.5 µM [LRP1.5]
T2 construct: Any N-terminal residues left from a signal peptide or tag are not described; also called LRP1.5; LPR1 domain IV (LRP1.5)
T2 sequence (Q07954 other isoform, or with tags, fused parts or gaps): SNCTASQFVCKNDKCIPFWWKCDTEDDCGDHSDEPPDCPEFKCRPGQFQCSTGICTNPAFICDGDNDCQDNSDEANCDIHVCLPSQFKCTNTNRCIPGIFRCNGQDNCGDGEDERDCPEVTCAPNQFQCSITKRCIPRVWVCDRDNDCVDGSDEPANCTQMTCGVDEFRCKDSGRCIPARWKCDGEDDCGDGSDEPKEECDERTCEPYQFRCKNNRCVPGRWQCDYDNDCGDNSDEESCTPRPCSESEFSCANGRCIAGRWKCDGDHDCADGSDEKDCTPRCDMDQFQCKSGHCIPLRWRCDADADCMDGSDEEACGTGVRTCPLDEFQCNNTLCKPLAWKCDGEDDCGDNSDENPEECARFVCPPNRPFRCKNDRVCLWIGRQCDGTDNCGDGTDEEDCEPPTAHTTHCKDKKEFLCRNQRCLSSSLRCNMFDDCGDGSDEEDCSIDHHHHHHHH
Method: as §1, §2, §3

[9] = biological target: T1, HuLRP1(1-24)-FLAG-HuLRP1(2481-2942)-8His …; experiment: SPR, LRP1.3 tethered on NTA chip (capture cross link), heme-hpx (batch TO411122), 1:1 steady state fit, mean of N = 3
[10] = biological target: T3, HuLRP1(1-24)-FLAG-HuLRP1(3293-3783)-8His (huLRP1 soluble minireceptor, ligand binding domain IV) (human, UniProt Q07954 3293-3783); experiment: BLI (Octet), LRP1.4 captured on anti-Penta-His biosensor, heme-hpx complex as analyte at 0.312-2.5 µM [LRP1.4]
T3 construct: also called LRP1.4; LPR1 domain IV
T3 sequence (Q07954 other isoform, or with tags, fused parts or gaps): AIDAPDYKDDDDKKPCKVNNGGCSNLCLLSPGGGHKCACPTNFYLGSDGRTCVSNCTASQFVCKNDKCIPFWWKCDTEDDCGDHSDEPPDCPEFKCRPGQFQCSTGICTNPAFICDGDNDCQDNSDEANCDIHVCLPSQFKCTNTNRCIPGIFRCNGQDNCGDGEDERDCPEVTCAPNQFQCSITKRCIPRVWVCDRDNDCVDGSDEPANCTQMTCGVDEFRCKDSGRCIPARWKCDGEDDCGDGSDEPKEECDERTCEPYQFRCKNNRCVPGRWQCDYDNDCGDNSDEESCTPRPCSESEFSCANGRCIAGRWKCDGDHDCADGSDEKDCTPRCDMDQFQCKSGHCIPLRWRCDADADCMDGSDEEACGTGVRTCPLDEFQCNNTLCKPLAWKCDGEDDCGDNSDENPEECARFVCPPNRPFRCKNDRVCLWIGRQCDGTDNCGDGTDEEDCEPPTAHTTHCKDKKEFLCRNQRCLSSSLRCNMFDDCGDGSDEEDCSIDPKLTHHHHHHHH
Method: as §1, §2, §3

[11] = biological target: T1, HuLRP1(1-24)-FLAG-HuLRP1(2481-2942)-8His …; experiment: SPR (Biacore), LRP1.3 tethered on NTA chip, heme-hpx complex batch TO411122 (as titled on the sheet) as analyte at 0.62-20 µM, steady state 1:1 fit
Method: as §4

[12] = biological target: T1, HuLRP1(1-24)-FLAG-HuLRP1(2481-2942)-8His …; experiment: SPR, LRP1.3 tethered on NTA chip, heme-hpx complex batch T0342022C as printed, 1:1 steady state fit, N = 1
[13] = biological target: T1, HuLRP1(1-24)-FLAG-HuLRP1(2481-2942)-8His …; experiment: SPR, LRP1.3 tethered on NTA chip (capture cross link), heme-hpx (batch TO411122) 0.62-20 µM, 1:1 steady state fit, run 2
Method: as §4, §5

[14] = biological target: T1, HuLRP1(1-24)-FLAG-HuLRP1(2481-2942)-8His …; experiment: SPR, LRP1.3 tethered on NTA chip (capture cross link), heme-hpx (batch TO411122) 0.62-20 µM, 1:1 steady state fit, run 1
Method: as §4

[15] = biological target: T1, HuLRP1(1-24)-FLAG-HuLRP1(2481-2942)-8His …; experiment: SPR, LRP1.3 tethered on NTA chip, heme-hpx complex batch TO342022B (“Aged”), 1:1 steady state fit, N = 1
Method: as §4

[16] = biological target: B2; experiment: BLI (Octet), LRP1.2 captured on anti-Penta-His biosensor, heme-hpx complex as analyte at 0.312-2.5 µM [LRP1.2]
Method: as §1, §2, §3

B1: HuLRP1(1-24)-FLAG-HuLRP1(25-113)-8His (huLRP1 soluble minireceptor, ligand binding domain I) (receptor)
chain: AIDAPDYKDDDDKKKTCSPKQFACRDQITCISKGWRCDGERDCPDGSDEAPEICPQSKAQRCQPNEHNCLGTELCVPMSRLCNGVQDCMDGSDEGPHCRELQGHHHHHHHH
notes: also called LPR1 domain I; LRP1 domain 1
binding result [1]: no binding (tested: 2.5 µM heme-hpx complex)

Binder: B2
Kd [2]: 1460 nM
koff [2]: 0.0555 s⁻¹
kon [2]: 37900 M⁻¹ s⁻¹
Kd [3]: ~2000 nM
Kd [4]: 1400 nM
Kd [5]: 2630 nM
Kd [6]: 1410 nM
Kd [7]: 1400 nM
binding result [8]: no binding (tested: 2.5 µM heme-hpx complex)
Kd [9]: 2620 nM
binding result [10]: no binding (tested: 2.5 µM heme-hpx complex)
Kd [11]: 1400 nM
Kd [12]: 1340 nM
Kd [13]: 2610 nM
Kd [14]: 2620 nM
Kd [15]: 1350 nM

B3: HuLRP1(1-24)-FLAG-HuLRP1(806-1183)-8His (huLRP1 soluble minireceptor, ligand binding domain II) (receptor)
chain: AIDAPDYKDDDDKKKCRVNNGGCSSLCLATPGSRQCACAEDQVLDADGVTCLANPSYVPPPQCQPGEFACANSRCIQERWKCDGDNDCLDNSDEAPALCHQHTCPSDRFKCENNRCIPNRWLCDGDNDCGNSEDESNATCSARTCPPNQFSCASGRCIPISWTCDLDDDCGDRSDESASCAYPTCFPLTQFTCNNGRCININWRCDNDNDCGDNSDEAGCSHSCSSTQFKCNSGRCIPEHWTCDGDNDCGDYSDETHANCTNQATRPPGGCHTDEFQCRLDGLCIPLRWRCDGDTDCMDSSDEKSCEGVTHVCDPSVKFGCKDSARCISKAWVCDGDNDCEDNSDEENCESLACRPPSHPCANNTSVCLPPDKLCDGNDDCGDGSDEGELCDHHHHHHHH
notes: also called LRP1.2; LPR1 domain II
binding result [16]: no binding (tested: 2.5 µM heme-hpx complex)
